Test results reported in PMC8887629.

Target: full-length human LRRK2 (leucine-rich repeat kinase 2) (human) (UniProt Q5S007)
Assay: cryo-EM structure

Substance: full-length human LRRK2 (leucine-rich repeat kinase 2) (from UniProt Q5S007 1-2527) (enzyme)
- stoichiometry N: 2
